Source: paper PMC9883448

How the values were obtained:
Assay in all cases: FRET or BRET; apparent FRET efficiency by donor (CFP) dequenching after photobleaching of the acceptor (YFP) with 514 nm in a membrane region of whole Xenopus oocytes that co-express the two labelled subunits (cRNAs 1:1)
[1] = biological target: human mGluR5 FRET sensor subunit (CFP or YFP in the intracellular loop i2, C-terminal tail replaced by a GABAB tail)
[2] = biological target: human mGluR8 FRET sensor subunit (CFP or YFP in the intracellular loop i2, C-terminal tail replaced by a GABAB tail)
[3] = biological target: human mGluR3 FRET sensor subunit (CFP or YFP in the intracellular loop i2, C-terminal tail replaced by a GABAB tail)
[4] = biological target: human mGluR4 FRET sensor subunit (CFP or YFP in the intracellular loop i2, C-terminal tail replaced by a GABAB tail)

| increase of donor light intensity after photobleaching of the acceptor (FRET efficiency) [1] [%] | apparent FRET efficiency (donor dequenching) [2] [%] | apparent FRET efficiency (donor dequenching) [3] [%] | apparent FRET efficiency (donor dequenching) [4] [%] | Substance |
| --- | --- | --- | --- | --- |
| 23 | – | – | – | human mGluR5 FRET sensor subunit (CFP or YFP in the intracellular loop i2, C-terminal tail replaced by a GABAB tail) (receptor) |
| – | 13 | – | – | human mGluR4 FRET sensor subunit (CFP or YFP in the intracellular loop i2, C-terminal tail replaced by a GABAB tail) (receptor) |
| – | 35 | 35 | 35 | human mGluR2 FRET sensor subunit (CFP or YFP in the intracellular loop i2, C-terminal tail replaced by a GABAB tail) (receptor) |
